Experimental data as given in paper PMC4098657 (Molecular microbiology, 2009).

T1: His-tagged FrzCD full-length protein (M. xanthus, UniProt P43500 1-417)
T1 sequence (looked up): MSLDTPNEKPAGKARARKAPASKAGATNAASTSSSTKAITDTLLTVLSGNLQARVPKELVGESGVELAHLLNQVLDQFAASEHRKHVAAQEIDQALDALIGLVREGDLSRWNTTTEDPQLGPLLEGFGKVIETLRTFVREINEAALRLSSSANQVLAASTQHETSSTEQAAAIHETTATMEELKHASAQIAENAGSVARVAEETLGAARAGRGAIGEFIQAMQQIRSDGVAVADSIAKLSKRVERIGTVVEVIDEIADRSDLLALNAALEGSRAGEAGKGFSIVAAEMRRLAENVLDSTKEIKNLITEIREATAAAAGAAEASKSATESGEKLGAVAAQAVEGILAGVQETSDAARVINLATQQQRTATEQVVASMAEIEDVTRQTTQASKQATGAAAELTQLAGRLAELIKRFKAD

B1: FrzCD^C-ter (domain or fragment, M. xanthus, UniProt P43500 132-417, looked up)
chain: ETLRTFVREINEAALRLSSSANQVLAASTQHETSSTEQAAAIHETTATMEELKHASAQIAENAGSVARVAEETLGAARAGRGAIGEFIQAMQQIRSDGVAVADSIAKLSKRVERIGTVVEVIDEIADRSDLLALNAALEGSRAGEAGKGFSIVAAEMRRLAENVLDSTKEIKNLITEIREATAAAAGAAEASKSATESGEKLGAVAAQAVEGILAGVQETSDAARVINLATQQQRTATEQVVASMAEIEDVTRQTTQASKQATGAAAELTQLAGRLAELIKRFKAD
B2: FrzCD^N-ter (domain or fragment, M. xanthus, UniProt P43500 2-135, looked up)
chain: SLDTPNEKPAGKARARKAPASKAGATNAASTSSSTKAITDTLLTVLSGNLQARVPKELVGESGVELAHLLNQVLDQFAASEHRKHVAAQEIDQALDALIGLVREGDLSRWNTTTEDPQLGPLLEGFGKVIETLR
B3: AglZ^Rec (domain or fragment, M. xanthus, UniProt Q1D823 2-240, looked up)
chain: ERRVLIVESEHDFALSMATVLKGAGYQTALAETAADAQRELEKRRPDLVVLRAELKDQSGFVLCGNIKKGKWGQNLKVLLLSSESGVDGLAQHRQTPQAADGYLAIPFEMGELAALSHGIVPPGTDDTGASLDAALNGTREAPPPMPPSLKAAAGGPPKLPKRERRSAMTEEDRAFLDRTFQSIADRKAELLAESRQLKRPPPRRELMGTPEGKIQILRDELKTREAQLARLSEIWNVR

What was measured:
Experiment in all cases: cross-linking
cross-linking = target: the molecule itself
AglZ^Rec = target: B3
[1] = target: T1, His-tagged FrzCD full-length protein

Binder	binding result (cross-linking)	binding result (AglZ^Rec)	binding result [1]
B1	binds	–	–
B2	binds	binds	–
B3	–	–	binds
